# Source: publication PMC3790847
# Target: T1, Fur (ferric uptake regulator) (Shewanella piezotolerans WP3) (UniProt B8CQZ2)
# T1 sequence: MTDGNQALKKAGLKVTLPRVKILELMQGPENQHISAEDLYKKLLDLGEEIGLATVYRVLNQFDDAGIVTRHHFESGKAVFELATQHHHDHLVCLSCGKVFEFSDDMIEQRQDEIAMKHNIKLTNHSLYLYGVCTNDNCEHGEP
# Assay: EMSA
# Details: 40 mM KCl, 12.5 mM Tris pH 7.5, 125 uM MnCl2, 1.25 mM MgCl2, 5% glycerol, 0.5 mM DTT, 0.01% BSA, 50 ug/ml salmon sperm DNA, 20 C, 30 min; ~0.2 pmol probe and …
row,Sequence,binding
1,ATAGAGGGGAGCCATAACGGCGAAGGTTACATGGAACTCACCGGCTACTAAGCCGTAACAACCACTCAAACATAAGCTTTATGAAGTATGTAATTGCATTCAAAAAGCAATAGATAAGAATAATTATCATTTACTAAGCTTATGAATATCTTGGATATTTAATGTAGCGCAAGCTAACATTTCGAGTGGACAAAATTCAAACAAGCTTCTAGTCTTTATTGGTAAATTTGAGAACTAGATCACCCCCTAAAAGTTGATCTTGGTCGAT (double strand) [napD (swp4456) promoter],binds
2,CAGGCTGTAATTGACCTTTTTACACGCAGCAAATAACTGCTTTTTTTGCTGTTCATCAAGTAAAGAGATGAGGGTTCCCGGCACGTTACATTCCTTGGCTTGATAATAATCAAGAGGTGAAGTTTGCTATTCAAGATATAGTGCAAATGATAATCATTATTAATAAAAGTGCAACATATAAAGGGAGCGATTATGGAAGCGATAAGTCCTGCTTTTCGATGGATAAGCGTGATAGCGA (double strand) [Crp-like regulator (swp3806) promoter],binds
3,TGACCTTAATCACATAAAGCATCTAAAACACCTGCTAAAAATTACGCTGTTAGTTAGCCTTAGAGGTGGAAATAAAATTCCACACACTAAATAAGGGTAAATGAGATTTGTTCTCAAACTAATTCCCTTTTTAGTGATGATTAAAAAACTATTGCAGGGACAAAAATGATGAAATTTTTCAACTTAAGCGCGACTTCAAAAGCGCTACTTACGGCAGGGGTGCTTTCGTTAGCAGTTTCTGGCTGTAGTGGC (double strand) [omcA (swp3277) promoter],binds
4,TTATTACGTGCAATAAGAAGCTTTAACTTTGCTGAGATAAACAATGAAAGAGGAGTTTCTATCAAACTTTAAATGAATGATACAGCTTGATTTGTTTGTGATCTTTTTGCTTTTGATGGTTACAGGTTTGTTAGTGTTGTGCGCGAGTTCACATTGACAATGTAAATACACGTAAAGAAGTATGAATAAAAACAATTCTCATTTATATTGCAGCCAATTATTAAATGTAGCTTTCATTTTTGGGGTTGGTTATGTCTTTTCAGGCGTCTT (double strand) [TonB receptor (swp5150) promoter],binds
